“And” between values parts separate entries of the source, which are not always exact repeats. Equal values may be shown once.
T1: human GnRH receptor (hGnRH-R) (human, UniProt P30968 1-328)
T1 sequence (looked up): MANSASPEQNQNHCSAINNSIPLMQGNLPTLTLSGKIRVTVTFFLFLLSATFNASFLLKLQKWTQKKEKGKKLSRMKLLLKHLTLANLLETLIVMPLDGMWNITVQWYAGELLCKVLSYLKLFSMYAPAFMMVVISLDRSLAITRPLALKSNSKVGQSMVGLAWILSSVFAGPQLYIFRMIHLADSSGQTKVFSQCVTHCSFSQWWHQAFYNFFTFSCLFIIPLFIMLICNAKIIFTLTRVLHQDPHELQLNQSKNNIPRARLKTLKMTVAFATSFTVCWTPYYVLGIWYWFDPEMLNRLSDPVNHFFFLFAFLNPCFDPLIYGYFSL


Molecular target: T1, human GnRH receptor (hGnRH-R)
Experiment: cell-based or functional assay

Molecule	proliferation status after 96 h (vital cells, untreated control = 100%), hGnRH-R positive cell line 5C6, 100 nM (% of untreated control)	proliferation status after 96 h (vital cells, untreated control = 100%), hGnRH-R positive cell line 5C6, 0.1 nM	proliferation status after 96 h (vital cells, untreated control = 100%), hGnRH-R positive cell line 5C6, 1 nM	proliferation status after 96 h (vital cells, untreated control = 100%), hGnRH-R positive cell line 5C6, 10 nM	proliferation status after 96 h (vital cells, untreated control = 100%), hGnRH-R positive cell line 5C6, 100 nM
AN-152 (peptide)	42.1 and 43.9	–	–	–	–
XHWSYKLRPG (Glp (pyroglutamate) at 1; D-Lys at 6, joined through a glutaryl linker to disorazole Z; C-terminal amide) [disorazole Z bis hemi glutaryl [D-Lys^6]LHRH (17)]	–	95.5 % of untreated control	85.9 % of untreated control	58.5 % of untreated control	41.7 % of untreated control
XHWSYKLRPG (Glp (pyroglutamate) at 1; D-Lys at 6, joined through a succinyl linker to disorazole Z; C-terminal amide) [disorazole Z mono hemi succinyl [D-Lys^6]LHRH (16)]	–	83.8 % of untreated control	80.9 % of untreated control	54.1 % of untreated control	21.9 % of untreated control
XHWSYKLRPG (Glp (pyroglutamate) at 1; D-Lys at 6, joined through a succinyl linker to disorazole E1; C-terminal amide) [disorazole E1 mono hemi succinyl [D-Lys^6]LHRH, both regio-isomers (13) & (14)]	–	85.9 % of untreated control	80.8 % of untreated control	45.9 % of untreated control	14.6 % of untreated control

Reference: patent publication US7741277 (AETERNA ZENTARIS, dated 2010)
